In publication PMC7094341:

Target: SARS-CoV papain-like protease (PLpro), trypsin-trimmed product of P-PLpro(C2)-His6 (SARS-CoV)

ISG15-AMC (full-length) (from UniProt P05161 1-157)
kcat/KM of hydrolysis of ISG15-AMC by PLpro (fluorescence, pH 7.8, 25 °C): 602000 M⁻¹ s⁻¹
